Test results taken from the RNAGym collection of RNA variant scans (doi:10.1093/nar/gkz1192).

B1: CPEB3 Ribozyme (parent)
chain: UAACAGGGGGCCACAGCAGAAGCGUUCACGUCGCAGCCCCUGUCAGAUUCUGGUGAAUCUGCGAAUUCUGCUGUAUAUCUC

Variants of: B1
Assay: self-cleavage, relative activity (ratio to wild type); higher = more cleavage; in vitro, sequencing
Summary of the method: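 Libraries of CPEB3 self-cleaving ribozyme mutants came from rounds of error-prone PCR and carried barcodes, which DNA sequencing matched to variants. In vitro transcription used T7 RNA polymerase at 37°C for 5 hours, with a further 15 min in DNase I before EDTA stopped the reaction; the ribozymes cleaved during both steps. The RNA was reverse transcribed with template switching and sequenced on Illumina. Relative activity is the cleaved/total read fraction of a variant divided by that of the unmutated ribozyme, averaged over three batches with at least 5 reads.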

Going from G10C U78A to G10C U78C, the self-cleavage rises from 0.09 to 0.17.

Compared with C11A A45G, G10A C23A is lower in self-cleavage: 0.41 for the first, 0.06 for the second.

Compared with G9U G19U, G10A U74A is higher in self-cleavage: 0.07 for the first, 0.25 for the second.

First: G10A U74C
Second: G10A U74G
The self-cleavage of the first is higher: 0.25 for the first, 0.14 for the second.

Compared with G9U U49C, G9U U49A is higher in self-cleavage: 0.11 for the first, 0.41 for the second.

First: G10C U43A
Second: G10C U43C
The self-cleavage of the first is higher: 0.38 for the first, 0.13 for the second.

Going from G10U U49G to G10U U49C, the self-cleavage rises from 0.14 to 0.24.

Compared with G10U U49A, G10A U69A is lower in self-cleavage: 0.31 for the first, 0.11 for the second.

Compared with G10A U69G, G10A U69C is lower in self-cleavage: 0.36 for the first, 0.2 for the second.

Compared with G9U U66G, G9U U66C is higher in self-cleavage: 0.11 for the first, 0.15 for the second.

First: G10A C71U
Second: G10A C71G
The self-cleavage of the first is lower: 0.08 for the first, 0.12 for the second.

Compared with G10A C71A, G10U U60G is higher in self-cleavage: 0.11 for the first, 0.31 for the second.

Going from G10U U60C to G10A U31C, the self-cleavage falls from 0.38 to 0.2.

Compared with G9U U43A, G9U U43G is lower in self-cleavage: 0.52 for the first, 0.12 for the second.

Going from G9U U43C to G10A U51A, the self-cleavage rises from 0.15 to 0.33.

Compared with G10A U51C, G10U C62U is lower in self-cleavage: 0.24 for the first, 0.13 for the second.

Compared with G9U, G10U U78C is higher in self-cleavage: 0.24 for the first, 0.39 for the second.

First: G10A C38U
Second: G10A G46U
The self-cleavage of the first is lower: 0.08 for the first, 0.17 for the second.

First: G9U C40A
Second: G9U C40U
The self-cleavage of the first is lower: 0.14 for the first, 0.19 for the second.

Compared with G9U A18C, G9U A18U is higher in self-cleavage: 0.18 for the first, 0.2 for the second.

First: G9U A18G
Second: G10A A13U
The self-cleavage of the first is lower: 0.19 for the first, 0.28 for the second.

First: G10A A13G
Second: G10A A13C
The self-cleavage of the first is lower: 0.26 for the first, 0.28 for the second.

First: G10A A56U
Second: G10A A56G
The self-cleavage of the first is lower: 0.12 for the first, 0.15 for the second.

First: G9U A57G
Second: G10A U54C
The self-cleavage of the first is higher: 0.25 for the first, 0.19 for the second.

Compared with G10A U54G, G10A U54A is higher in self-cleavage: 0.16 for the first, 0.35 for the second.

Compared with G10A G61C, G9U U76A is higher in self-cleavage: 0.09 for the first, 0.39 for the second.

First: G9U U76C
Second: G9U A64G
The self-cleavage of the first is lower: 0.13 for the first, 0.15 for the second.

Going from G9U A64U to C11A A20G, the self-cleavage rises from 0.06 to 0.21.

Compared with G10U A65G, G10C G42U is lower in self-cleavage: 0.19 for the first, 0.16 for the second.

Going from G10U U48A to G9U U60A, the self-cleavage falls from 0.35 to 0.15.

Going from G9U U60C to G10A U66C, the self-cleavage rises from 0.06 to 0.2.

Compared with G10C G73A, G9U A28U is lower in self-cleavage: 0.35 for the first, 0.13 for the second.

Going from G9U A28G to G10A G30U, the self-cleavage rises from 0.11 to 0.17.

First: G10A U26A
Second: G10A U26C
The self-cleavage of the first is lower: 0.07 for the first, 0.22 for the second.

First: G10A U26G
Second: G10A A45U
The self-cleavage of the first is lower: 0.05 for the first, 0.19 for the second.

Going from G10A A45G to C11A A13G, the self-cleavage falls from 0.22 to 0.09.

Compared with C11A A13U, G9U U69C is lower in self-cleavage: 0.34 for the first, 0.11 for the second.

Compared with G9U U69G, G9U U69A is lower in self-cleavage: 0.18 for the first, 0.11 for the second.

First: G10C C14U
Second: G10U C37A
The self-cleavage of the first is lower: 0.5 for the first, 0.72 for the second.

First: G10C A20U
Second: G10C A20G
The self-cleavage of the first is higher: 0.42 for the first, 0.19 for the second.

First: G9U A65G
Second: C11A A28G
The self-cleavage of the first is higher: 0.17 for the first, 0.1 for the second.

Going from C11A A28U to G10C C44U, the self-cleavage falls from 0.67 to 0.18.

Compared with G10C U67C, G10C U67A is lower in self-cleavage: 0.37 for the first, 0.17 for the second.

Compared with G9U U31G, G9U U31C is higher in self-cleavage: 0.06 for the first, 0.13 for the second.

Compared with C11A A15U, C11A A15G is lower in self-cleavage: 0.37 for the first, 0.21 for the second.

G10U C32U and G10A C44U are the same in self-cleavage: 0.21 for the first, 0.21 for the second.

Compared with G10C U48C, G10C A45G is lower in self-cleavage: 0.22 for the first, 0.13 for the second.

First: G10C A45U
Second: G10U G53U
The self-cleavage of the first is lower: 0.16 for the first, 0.24 for the second.

Compared with G10A C27G, G10A C11U is higher in self-cleavage: 0.16 for the first, 0.5 for the second.

Compared with G10C U58C, G10C U25C is lower in self-cleavage: 0.19 for the first, 0.07 for the second.

Compared with G9U A15C, G9U A15U is lower in self-cleavage: 0.36 for the first, 0.32 for the second.

Going from G9U A15G to G10A C59A, the self-cleavage falls from 0.14 to 0.06.

Going from G9U A77U to G10U A64U, the self-cleavage rises from 0.16 to 0.35.

Going from G10U A64G to G10A U78C, the self-cleavage rises from 0.07 to 0.24.

Compared with G10A U78G, G9U U48C is lower in self-cleavage: 0.33 for the first, 0.29 for the second.

G10C A15U and G10C A15G are the same in self-cleavage: 0.08 for the first, 0.08 for the second.

First: G9U G24C
Second: G9U G70A
The self-cleavage of the first is higher: 0.11 for the first, 0.1 for the second.

First: G9U A45G
Second: G9U A45U
The self-cleavage of the first is higher: 0.11 for the first, 0.04 for the second.

Going from G9U A45C to G10U G33A, the self-cleavage rises from 0.05 to 0.23.

Going from G10U G33U to G10C U54C, the self-cleavage rises from 0.1 to 0.39.

First: G10C U54A
Second: G10A U49G
The self-cleavage of the first is higher: 0.26 for the first, 0.18 for the second.

Going from G10A U49C to G10U U67C, the self-cleavage falls from 0.19 to 0.12.

First: G10A G24A
Second: G9U G36A
The self-cleavage of the first is higher: 0.16 for the first, 0.15 for the second.

Going from G9U G36C to G10A U58C, the self-cleavage rises from 0.07 to 0.18.

Going from G10A U58A to G10U U25C, the self-cleavage falls from 0.24 to 0.21.

Going from G10A A57G to G10A A57U, the self-cleavage falls from 0.29 to 0.05.

Going from G9U G55A to G10C A18G, the self-cleavage falls from 0.41 to 0.13.

Compared with G10C A18U, G10U A15G is higher in self-cleavage: 0.12 for the first, 0.18 for the second.

Going from G10U A57G to G10U A57U, the self-cleavage falls from 0.23 to 0.07.

First: G9U U67C
Second: G9U U67A
The self-cleavage of the first is higher: 0.24 for the first, 0.11 for the second.

Compared with G10C A28C, G10C A28G is lower in self-cleavage: 0.16 for the first, 0.14 for the second.

Going from G10A U67C to G10C U76C, the self-cleavage falls from 0.25 to 0.19.

First: G10U C38G
Second: G10A A15U
The self-cleavage of the first is lower: 0.17 for the first, 0.2 for the second.

G10A A15G and G9U U80C are the same in self-cleavage: 0.24 for the first, 0.24 for the second.

Compared with G9U U80A, G10C U26G is higher in self-cleavage: 0.26 for the first, 0.39 for the second.

First: G10C U26C
Second: G10A C17A
The self-cleavage of the first is lower: 0.21 for the first, 0.23 for the second.

Going from G10A C17G to G10A C17U, the self-cleavage falls from 0.3 to 0.06.

First: G10A U72G
Second: G10A U72C
The self-cleavage of the first is lower: 0.24 for the first, 0.39 for the second.

Going from G10A U72A to G10A A28C, the self-cleavage falls from 0.22 to 0.1.

First: G10A A28G
Second: G10A A28U
The self-cleavage of the first is higher: 0.21 for the first, 0.17 for the second.

G10U G52U and G9U U72A are the same in self-cleavage: 0.09 for the first, 0.09 for the second.

First: G9U U72C
Second: G9U C14U
The self-cleavage of the first is higher: 0.26 for the first, 0.11 for the second.

First: G9U C12U
Second: G9U U26C
The self-cleavage of the first is higher: 0.2 for the first, 0.19 for the second.

G9U U26G gave a self-cleavage of 0.09.
